Laboratory results taken from the supplement of paper PMC9170038.

Columns and labels:
[1] = tested on: MS2 coat protein; experiment: apparent KD of MS2 coat protein, switch ON state; designed switch direction (-1 OFF switch, 1 ON switch): -1; higher = weaker reporter binding; conditions: FMN input: 0 or 200 uM; Eterna round: R93 (includes R88 designs)
In short: (§1)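 Designed RNA switches were transcribed on-chip from Illumina sequencing clusters and titrated with SNAP-549-labelled MS2 coat protein in twofold steps from 0.7 or 1.5 nM up to 3 µM. Each step lasted 0.8–1.5 h at first and 10–20 min by the end, in 100 mM Tris-HCl pH 7.5, 80 mM KCl and 4 mM MgCl2, without or with constant ligand. Apparent KD is the median, for each design, of fits to normalised cluster binding curves.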

[2] = tested on: MS2 coat protein; experiment: apparent KD of MS2 coat protein, switch OFF state (with FMN for OFF switches, without FMN for ON switches); designed switch direction (-1 OFF switch, 1 ON switch): -1; higher = weaker reporter binding; conditions: FMN input: 0 or 200 uM; Eterna round: R93 (includes R88 designs)
In short: as §1

Sequence	apparent KD of MS2 coat protein [1]	apparent KD of MS2 coat protein [2]
AAAAAACAUGAGGAUCACCCAUGUGAGGAUAUGCAAAACCCAUAUAAAAAGGGAAAAAGCAGAAGGCACAAAAA [Starry Exclusion 1.3 (wbt round 1 mod)]	22.8 nM	55.8 nM
AAAAAACAUGAGGAUCACCCAUGUGAGGAUAUGCAAAAGAAAAGAAAAGAAAGAAGAAGCAGAAGGCACAAGAA [Djedefra]	29.4 nM	36.8 nM
AAAAAACAUGAGGAUCACCCAUGUGAGGAUAUGCGAAAAUAAAAUAAAAUAAAUAAAAGCAGAAGGCACAAAAA [Mat - Exclusion 1 - Eli mod - D59]	41.1 nM	43.9 nM
AAAAAACAUGAGGAUCACCCAUGUGAGGAUAUGUAAAAUAAAAUAAAAAUAAAGAAAAGCAGAAGGUAUAUGAA [Amethyst 65]	20.4 nM	23.2 nM
AAAAAAGGAGGAUAUACGUACAUGUCAAAAGACGUGAAGGGACAUGAGGAUCACCCAUGUAGAAGGUCUAAAAA [JL Part Open 36]	34.5 nM	17.9 nM
AAAAAAGGAGGAUAUACGUACAUGUCGAAAGACGUGAAGGGACAUGAGGAUCACCCAUGUAGAAGGCCUAAAAA [Mat - Exclusion 2 - JL mod - D86]	34.8 nM	107 nM
AAAAACCUAGGAUAUACAUGAGGAUCACCCAUGUAAAGAAACAAAAAGGGAAAAACAAGUAGAAGGAGGAAGAA [JR_Exc003_Sub1202]	16.3 nM	18.2 nM
AAAAAGAUAGGAUAUACGUACAUGUCAAAAGACGUGAAGGGACAUGAGGAUCACCCAUGUAGAAGGAUUAAAAA [JL Wide Open 40]	31.6 nM	20.1 nM
AAAAAGGCAGGAUAUACGAAACUAAGACAAAUAAGAAAGGGACAUGAGGAUCACCCAUGUAGAAGGGCCAAAAA [Exclusion 2-01... 60% 4]	49.1 nM	70.1 nM
AAAAAGGGAGGAUAUACAUGAGGAUCACCCAUGUAAAAAAAAAAAGGAGGGAGGGAAGGUAGAAGGCCCAAAAA [Excls3-IIi]	17.7 nM	24.6 nM
AAAAAGGGAGGAUAUACAUGAGGAUCACCCAUGUAAAAAAAAACAAAAAAAAAAAAAAGUAGAAGGCCCAAAAA [here you go]	52.3 nM	37.5 nM
AAAAAGGGAGGAUAUACAUGAGGAUCACCCAUGUGAAGGACGAAAAAGAGUCUAAAGGGUAGAAGGCCCAAAAA [65%, Moding Exclusion3-cac2, 11]	52.5 nM	43.4 nM
AAAAAGGUAGGAUAUACAUGAGGAUCACCCAUGUAAAUAAAUGGAGAAAAAAACAAUUGUAGAAGGGCCAAAAA [Ex3 Malc#8]	39.9 nM	43.1 nM
AAAAAGUCAGGAUAUACGAAAGUGCGAAAGCACAAAAAGAGACAUGAGGAUCACCCAUGUAGAAGGGACAAGAA [Married to this design, 61% 2]	45 nM	17.8 nM
AAAAAGUCAGGAUAUGCAGAAAAAAAAACGAAAAAAAAACUGCAGAAGGGACAUGAGGAUCACCCAUGUUAAAA [Ex 4 May 14]	30.8 nM	29.8 nM
AAAAAGUGAGGAUAUGGUAAAAAAAAAAAAAAAAAAAAAAUCCAGAAGGCACAUGAGGAUCACCCAUGUAAAAA [Jolly Cotton - Jieux - Exclusion 4]	46.2 nM	29.7 nM
AAAAAGUGAGGAUAUUCGGAUAGGAAAACGAAAACCUAUCCGAAGAAGGCACAUGAGGAUCACCCAUGUAAAAA [67% Ecls-II - Early G segment 1]	37 nM	37.6 nM
AAAAAGUUAGGAUAUACAUGAGGAUCACCCAUGUACAUAAAUGGAGAAAAAAACAGUAGUAGAAGGGACAAAAA [EX2 Malc#11]	23.8 nM	22.2 nM
AAAAAUGGAGGAUAUACAUGAGGAUCACCCAUGUGAAACAAAACAAAACACAAAAAAAGUAGAAGGCCAAAAAA [Gilly Gone Silly 4 - Jieux - Exclusion 3]	33.1 nM	38.2 nM
AAAAAUGGAGGAUAUACAUGAGGAUCACCCAUGUGUAAAAAAAAUUACACAAAAGAAAGUAGAAGGCCAUAAAA [Ex 3 Warm]	59.7 nM	102 nM

Sequence	apparent KD of MS2 coat protein [1]	apparent KD of MS2 coat protein [2]
AAAAAUGGAGGAUAUACAUGAGGAUCACCCAUGUGUAACUAUACUAAGCACAAACCACGUAGAAGGCCAAAAAA [Gilly Gone Silly 11 - Jieux - Exclusion 3]	51.7 nM	78.3 nM
AAAAAUGGAGGAUAUACAUGAGGAUCACCCAUGUGUGACUAUACUAUGUGCUCUUCAGGUAGAAGGCCAAAAAA [Gilly Gone Silly 19 - Jieux - Exclusion 3]	44.3 nM	249 nM
AAAAAUGGAGGAUAUACAUGAGGAUCACCCAUGUUAGAACAAAAAAAAGGGAAAGAAAGUAGAAGGCCAUAAAA [Ex 3 May 25]	34.7 nM	49.1 nM
AAAACACAUGAGGAUCACCCAUGUGAGGAUAUCGUGCAGUAGACGAAAGUCUACUGCACGAGAAGGCACAAGGA [Tweaking Brourd]	33 nM	50.2 nM
AAAACACAUGAGGAUCACCCAUGUGAGGAUAUGCGAAAAAAAAAAAAAAAAAAAAAACGCAGAAGGCACAUAAA [jn_teaneck]	23.6 nM	43.5 nM
AAAACACAUGAGGAUCACCCAUGUGAGGAUAUGCUAUGGAAAUAAAAAAUAAAACAUAGCAGAAGGCGCAGGAA [Mat - Exclusion 1 - Eli mod - D47]	25.2 nM	29.1 nM
AAAACGUCAGGAUAUACAGAAGAGAUCACAAAAAAAAAAAAACAUGAGGAUCACCCAUGUAGAAGGGACAAAAA [Ex2 Malc#2]	111 nM	115 nM
AAAACUAGAGGAUAUACGAACAUGUCAAAAGACGUGAAGGGACAUGAGGAUCACCCAUGUAGAAGGCUAGAAAA [JL Stem Breaker 11]	55.6 nM	71.9 nM
AAAAGCAGAGGAUAUACAUAAUUAUGACGAAAGUCAUAAAAACAUGAGGAUCACCCAUGUAGAAGGCUGCAAAA [MOD of Meechl's MS2 Ex2 (MS2 riboswitches - Exlclusion 2)]	24.9 nM	28.1 nM
AAAAGGGCAGGAUAUGCGUACUCACGGAAAAACUGGAUGGUACAUGAGGAUCACCCAUGUAGAAGGGCUAAAAA [Dora Explored 17 - Jieux - Exclusion 2]	57.5 nM	40.9 nM
AAAAGGUCAGGAUAUGCCCACCAGGAAAAAAAACCAGGUGGGCAGAAGGGACAUGAGGAUCACCCAUGUAAAAA [Excls4-I]	59.6 nM	107 nM
AAAAGGUGAGGAUAUACGAAAAAAAAAAAAAAAAAAAAAAAGUAGAAGGCACAUGAGGAUCACCCAUGUAAAAA [LROPPY Exclusion 4 - v01_deltaG=2.54]	31.3 nM	41.3 nM
AAAAUAAAAGGAUAUAAAAAUAAAAGUCAGGAUAUAGGAAACUAGAAGGGACAUGAGGAUCACCCAUGUAAAAU [Meechl Ex4 R2 m1]	47.8 nM	33.8 nM
AAAAUACAUGAGGAUCACCCAUGUGAGGAUAUGAGAAAGGGAAUAAAAUAACCCAAACUCAGAAGGCACAAAAA [Ex 1 May 26]	35.9 nM	45.9 nM
AAACCACAUGAGGAUCACCCAUGUCAGGAUAUGCUAUGGAAAAAUAAAAUAAAACAUAGCAGAAGGGACAAAAA [Mat - Exclusion 1 - Eli mod - D34]	31.1 nM	52 nM
AAACUACUAGGAUAUACAACGGUGUCCUAACUACUAAGAAAACAUGAGGAUCACCCAUGUAGAAGGAGUAAUAA [Cearused]	35.8 nM	78.2 nM
AAACUGGUAGGAUAUGCUAGGGCGAUUAAUACGCCGAUAGUACAUGAGGAUCACCCAUGUAGAAGGGCCAGAAA [Mat - Exclusion 2 - JL mod - D65]	30.8 nM	23.6 nM
AAAGGACAUGAGGAUCACCCAUGUGAGGAUAUCGGAAAAGGAAAAAAAAAAAAGAAGACGAGAAGGCACACCAA	38.8 nM	55.6 nM
AAAGGACGAGGAUAUACAUGAGGAUCACCCAUGUAAAAAACAUAAUAAAAGAAUAUAUGUAGAAGGCGUCCAAA [Ruby 59]	18.7 nM	17.8 nM
